Consider eight substances from paper PMC5923235.

Assay [1] concerns the target NTS1 A90C^1.58 (TM1) in the Cys-depleted background of rat neurotensin receptor 1 (rat) (UniProt P20789). Kind of assay: FRET or BRET; ensemble FRET; A488- and A555-labelled NTS1 reconstituted together 1:1 in brain polar lipid liposomes; apo; ~1 μM receptor; 50 mM Tris-HCl pH 7.4, 50 mM NaCl, 1 mM EDTA, 10% glycerol; room temperature; Ecor corrected for donor-to-acceptor ratio.

Assay [2] has the same target. The experiment in a line: FRET or BRET; ensemble FRET as for the apo samples, with 5 μM agonist neurotensin (+NT); A488- and A555-labelled NTS1 1:1 in brain polar lipid liposomes; room temperature.
The target in assay [3] is NTS1 L371C^7.55 (TM7) in the Cys-depleted background of rat neurotensin receptor 1 (rat) (UniProt P20789). Kind of assay: FRET or BRET; ensemble FRET; A488- and A555-labelled NTS1 reconstituted together 1:1 in brain polar lipid liposomes; apo; ~1 μM receptor; 50 mM Tris-HCl pH 7.4, 50 mM NaCl, 1 mM EDTA, 10% glycerol; room temperature; Ecor corrected for donor-to-acceptor ratio.

Assay [4] has the same target. Kind of assay: FRET or BRET; ensemble FRET as for the apo samples, with 5 μM agonist neurotensin (+NT); A488- and A555-labelled NTS1 1:1 in brain polar lipid liposomes; room temperature.
For assay [5], the target named is NTS1 Q378C^8.52 (H8) in the Cys-depleted background of rat neurotensin receptor 1 (rat) (UniProt P20789). Kind of assay: FRET or BRET; ensemble FRET; A488- and A555-labelled NTS1 reconstituted together 1:1 in brain polar lipid liposomes; apo; ~1 μM receptor; 50 mM Tris-HCl pH 7.4, 50 mM NaCl, 1 mM EDTA, 10% glycerol; room temperature; Ecor corrected for donor-to-acceptor ratio.

Assay [6] shares this target. The experiment in a line: FRET or BRET; ensemble FRET as for the apo samples, with 5 μM agonist neurotensin (+NT); A488- and A555-labelled NTS1 1:1 in brain polar lipid liposomes; room temperature.
Assay [7] addresses NTS1 V307C^6.34 (TM6) in the Cys-depleted background of rat neurotensin receptor 1 (rat) (UniProt P20789). The experiment in a line: FRET or BRET; ensemble FRET; A488- and A555-labelled NTS1 reconstituted together 1:1 in brain polar lipid liposomes; apo; ~1 μM receptor; 50 mM Tris-HCl pH 7.4, 50 mM NaCl, 1 mM EDTA, 10% glycerol; room temperature; Ecor corrected for donor-to-acceptor ratio.

Assay [8] has the same target. The experiment in a line: FRET or BRET; ensemble FRET as for the apo samples, with 5 μM agonist neurotensin (+NT); A488- and A555-labelled NTS1 1:1 in brain polar lipid liposomes; room temperature.
In assay [9] the target is NTS1 Y104C^2.41 (TM2) in the Cys-depleted background of rat neurotensin receptor 1 (rat) (UniProt P20789). The experiment in a line: FRET or BRET; ensemble FRET; A488- and A555-labelled NTS1 reconstituted together 1:1 in brain polar lipid liposomes; apo; ~1 μM receptor; 50 mM Tris-HCl pH 7.4, 50 mM NaCl, 1 mM EDTA, 10% glycerol; room temperature; Ecor corrected for donor-to-acceptor ratio.

Assay [10] shares this target. The experiment in a line: FRET or BRET; ensemble FRET as for the apo samples, with 5 μM agonist neurotensin (+NT); A488- and A555-labelled NTS1 1:1 in brain polar lipid liposomes; room temperature.
The target of assay [11] is NTS1 S(C)172C^3.55 (TM3, re-introduced native Cys) in the Cys-depleted background of rat neurotensin receptor 1 (rat) (UniProt P20789). Kind of assay: FRET or BRET; ensemble FRET; A488- and A555-labelled NTS1 reconstituted together 1:1 in brain polar lipid liposomes; apo; ~1 μM receptor; 50 mM Tris-HCl pH 7.4, 50 mM NaCl, 1 mM EDTA, 10% glycerol; room temperature; Ecor corrected for donor-to-acceptor ratio.

Assay [12] shares this target. The experiment in a line: FRET or BRET; ensemble FRET as for the apo samples, with 5 μM agonist neurotensin (+NT); A488- and A555-labelled NTS1 1:1 in brain polar lipid liposomes; room temperature.
Assay [13] addresses NTS1 A261C^5.52 (TM5) in the Cys-depleted background of rat neurotensin receptor 1 (rat) (UniProt P20789). The experiment in a line: FRET or BRET; ensemble FRET; A488- and A555-labelled NTS1 reconstituted together 1:1 in brain polar lipid liposomes; apo; ~1 μM receptor; 50 mM Tris-HCl pH 7.4, 50 mM NaCl, 1 mM EDTA, 10% glycerol; room temperature; Ecor corrected for donor-to-acceptor ratio.

Assay [14] has the same target. Kind of assay: FRET or BRET; ensemble FRET as for the apo samples, with 5 μM agonist neurotensin (+NT); A488- and A555-labelled NTS1 1:1 in brain polar lipid liposomes; room temperature.
Assay [15] has as its target NTS1 T186C^4.42 (TM4) in the Cys-depleted background of rat neurotensin receptor 1 (rat) (UniProt P20789). Kind of assay: FRET or BRET; ensemble FRET; A488- and A555-labelled NTS1 reconstituted together 1:1 in brain polar lipid liposomes; apo; ~1 μM receptor; 50 mM Tris-HCl pH 7.4, 50 mM NaCl, 1 mM EDTA, 10% glycerol; room temperature; Ecor corrected for donor-to-acceptor ratio.

Assay [16] has the same target. Kind of assay: FRET or BRET; single-molecule FRET by TIRF microscopy; Cy3- and Cy5-labelled NTS1 T186C in DPhPC droplet interface bilayers, 100:405:45 Cy3:Cy5:unlabelled, receptor density 0.43 μm^-2; 50 mM NaCl, 1 mM EDTA, 50 mM Tris-HCl pH 7.4; 30 ms frames; constants are of dimer to monomers in two dimensions.
The target is the same in assay [17]. The experiment in a line: FRET or BRET; ensemble FRET as for the apo samples, with 5 μM agonist neurotensin (+NT); A488- and A555-labelled NTS1 1:1 in brain polar lipid liposomes; room temperature.

Turning to “NTS1 A90C^1.58 (TM1) in the Cys-depleted background of rat neurotensin receptor 1 (from UniProt P20789 43-424)”, the Ecor(apo) in assay [1] is 0.73. The substance further showed an Ecor(+NT) in [2] of 0.77.

Consider “NTS1 L371C^7.55 (TM7) in the Cys-depleted background of rat neurotensin receptor 1 (from UniProt P20789 43-424)”, for which, in assay [3], the Ecor(apo) came out at 0.68. Moreover, the Ecor(+NT) in assay [4] was found to be 0.7.

As to “NTS1 Q378C^8.52 (H8) in the Cys-depleted background of rat neurotensin receptor 1 (from UniProt P20789 43-424)”, the Ecor(apo) in assay [5] was 0.89. The Ecor(+NT) in assay [6] worked out at 0.89.

Regarding “NTS1 V307C^6.34 (TM6) in the Cys-depleted background of rat neurotensin receptor 1 (from UniProt P20789 43-424)”, the Ecor(apo) in assay [7] was 0.99. Also, the Ecor(+NT) in [8] came out at 0.82.

For the substance “NTS1 Y104C^2.41 (TM2) in the Cys-depleted background of rat neurotensin receptor 1 (from UniProt P20789 43-424)”, the Ecor(apo) in assay [9] came to 0.9. In assay [10], this substance came in with an Ecor(+NT) of 0.9.

“NTS1 S(C)172C^3.55 (TM3, re-introduced native Cys) in the Cys-depleted background of rat neurotensin receptor 1 (from UniProt P20789 43-424)”: the Ecor(apo) in assay [11] is 1.03. In assay [12], this substance displayed an Ecor(+NT) of 1.02.

For the substance “NTS1 A261C^5.52 (TM5) in the Cys-depleted background of rat neurotensin receptor 1 (from UniProt P20789 43-424)”, in assay [13], the Ecor(apo) stood at 0.98. Also, the Ecor(+NT) in [14] was found to be 1.05.

Take “NTS1 T186C^4.42 (TM4) in the Cys-depleted background of rat neurotensin receptor 1 (from UniProt P20789 43-424)”: in [15], the Ecor(apo) worked out at 0.77. Besides, in assay [16], the dimer half-life t1/2 turned out to be 1.2 s, the koff was 0.58 s⁻¹, the percent of receptors as dimers at 0.43 molecules per μm^2 turned out to be 9.8% and the stoichiometry N was 2. The Ecor(+NT) in assay [17] was 0.78.
